Results published in article PMC13199644, “Optimized Quantitative Bacterial Two-Hybrid (qB2H) for Protein–Protein Interaction Assessment” (Computational and Structural Biotechnology Journal, 2026).

Each binder was assayed against T1, Recombinant human ASF1AN (residues 1 to 156) (human, UniProt Q9Y294 1-156) (assay: ITC; VP-ITC, 20 °C, 50 mM tris-HCl pH 7.5; binder injected into the ASF1 solution; One Set of Sites model; duplicate). Conditions: both partners purified.
T1 construct: N-terminal domain of human ASF1A, UniProt Q9Y294, residues 1 to 156; Unlabeled for ITC; uniformly 15N- and/or 15N-13C-labeled for NMR; Made from pETM30 with a TEV cleavage site; also called hASF1AN; 15N-ASF1AN; source: E. coli, purified (glutathione agarose, TEV cleavage, Ni-NTA flow-through, Resource Q); not shown: His6, N-terminal, cleaved; GST, N-terminal, cleaved
T1 sequence (Q9Y294 1-156): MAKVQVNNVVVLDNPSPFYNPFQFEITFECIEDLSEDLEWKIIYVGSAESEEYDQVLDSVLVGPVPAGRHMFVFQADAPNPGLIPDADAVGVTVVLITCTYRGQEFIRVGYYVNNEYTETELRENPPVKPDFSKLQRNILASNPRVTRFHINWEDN

Kd	Binder
152 ± 25 nM	AEEEAARFAALLAALPGSKWARLARRTAGAGGVTLNGAG (designed binder, designed N-terminal extension; linker; ip4_mutG; source: E. coli BL21(DE3) Star, purified (Ni-NTA, SUMO protease, Resource RPC, Superdex 30); not shown: His6, N-terminal, cleaved; SUMO, N-terminal, cleaved) [T32_Kan[209]_top1 (AEEEAARFAALLAALP-GSK-ip4_mutG), purified peptide]
581 ± 98 nM	AAAERARFAALLAKLPGSKWARLARRTAGAGGVTLNGAG (designed binder, designed N-terminal extension; linker; ip4_mutG; source: E. coli BL21(DE3) Star, purified (Ni-NTA, SUMO protease, Resource RPC, Superdex 30); not shown: His6, N-terminal, cleaved; SUMO, N-terminal, cleaved) [Kan[348]_top2 (AAAERARFAALLAKLP-GSK-ip4_mutG), purified peptide]
10600 ± 1000 nM	WARLARRTAGAGGVTLNGAG (also called constant C-terminal scaffold) [ip4_mutG]
235 ± 26 nM	SAAARWAAALAALPGSKWARLARRTAGAGGVTLNGAG (designed binder, designed N-terminal extension; linker; ip4_mutG; source: E. coli BL21(DE3) Star, purified (Ni-NTA, SUMO protease, Resource RPC, Superdex 30); not shown: His6, N-terminal, cleaved; SUMO, N-terminal, cleaved) [Kan[348]_top1 (SAAARWAAALAALP-GSK-ip4_mutG), purified peptide]
